Each block holds one substance with its values, some of them ahead of it.
Experiments:
[1] = tested on: MIA PaCa-2 (CLDN18.2-) cell line; assay: Cell-based ELISA binding to MIA PaCa-2 (CLDN18.2-) cells; conditions: CLDN18.2 negative cell line
Description: (§1) OD value measurement through ELISA was performed by measuring the absorbance at 450 nm using a UV-Vis spectrometer.
(§2) Four types of cell lines (MIA PaCa-2˜CLDN18.2, PATU8988S, parental MIA PaCa-2 (CLDN18.2-), and SNU601) were prepared. At this time, MIA PaCa-2˜CLDN18.2 and PATU8988S are CLDN18.2-positive pancreatic cancer cell lines. MIA PaCa-2 (CLDN18.2-) is a CLDN18.2-negative pancreatic cancer cell line. SNU601 is a CLDN18.2-positive gastric cancer cell line.
(§3) The prepared cell lines were cultured in DMEM containing 10% FBS and 1% penicillin/streptomycin (MIA PaCa-2˜CLDN18.2, MIA PaCa-2 (CLDN18.2-)), RPMI1640 containing 10% FBS and 1% penicillin/streptomycin (SNU601), and DMEM containing 5% FBS, 5% serum, 1% penicillin/streptomycin, and 2 mM L-glutamine (PATU8988S) in an incubator under the conditions of 37° C. and 5% CO2.
(§4) The prepared cell lines were plated on 96-well plates for culture, and then treated with each of antibody-A, ADC-A, antibody-B, and ADC-B. Thereafter, cell-based ELISA was performed, and OD values were measured.
(§5) The measured results were used for a regression analysis in GraphPad PRISM® 9.0 software to calculate EC50 and Bmax. The cell binding affinity of antibody-A, ADC-A, antibody-B, and ADC-B to each cell line was evaluated based on the calculated values.

SNU601 cell line = assay: Cell-based ELISA binding to SNU601 cells; conditions: SNU601 (CLDN18.2+)
Description: as §1, §2, §3, §4, §5

[2] = tested on: MIA PaCa-2˜CLDN18.2 cell line; assay: Cell-based ELISA binding to MIA PaCa-2˜CLDN18.2 cells
Description: as §1, §2, §3, §4, §5

[3] = molecular target: T1, claudin18.2 protein (CLDN18.2) (Homo sapiens, UniProt P56856); assay: Indirect ELISA binding to CLDN18.2 VLP; conditions: CLDN18.2 (antigen protein) VLP, OD at 450 nm
T1 construct: purchased CUSABIO TECHNOLOGY LLC CSB-MP005498HU (A5)
Description: as §1
To confirm the binding strength to an antigen, a CLDN18.2˜VLP (virus-like particle) expressing the claudin18.2 protein (CLDN18.2) was prepared. At this time, CLDN18.2˜VLP is CSB-MP005498HU (A5) from CUSABIO TECHNOLOGY LLC.
After a 96-well plate was coated with the CLDN18.2 VLP for ELISA and treated with each of antibody-A and ADC-A, indirect ELISA was performed to measure OD values.
The measured results were used for a regression analysis in GraphPad PRISM® 9.0 software to calculate EC50 and Bmax. The antigen binding affinity of antibody-A, ADC-A, antibody-B, and ADC-B were evaluated based on the calculated values.

PATU8988S cell line = assay: Cell-based ELISA binding to PATU8988S cells; conditions: PATU8988S (CLDN18.2+)
Description: as §1, §2, §3, §4, §5

[4] = molecular target: claudin18.2 protein (CLDN18.2) on CLDN18.2-positive cancer cell lines (MIA PaCa-2~CLDN18.2, SNU601, PATU8988S, NUGC-4) (UniProt P56856); assay: cell-based ELISA (OD 450 nm), MIA PaCa-2 (CLDN18.2+) cells
[5] = molecular target: claudin18.2 protein (CLDN18.2) on CLDN18.2-positive cancer cell lines (MIA PaCa-2~CLDN18.2, SNU601, PATU8988S, NUGC-4) (UniProt P56856); assay: cell-based ELISA (OD 450 nm), SNU601 (CLDN18.2+) cells; set-up: unit not given here
[6] = molecular target: claudin18.2 protein (CLDN18.2) on CLDN18.2-positive cancer cell lines (MIA PaCa-2~CLDN18.2, SNU601, PATU8988S, NUGC-4) (UniProt P56856); assay: cell-based ELISA, PATU8988S (CLDN18.2+) cells; given as Kd, text calls it EC50
[7] = molecular target: claudin18.2 protein (CLDN18.2) on CLDN18.2-positive cancer cell lines (MIA PaCa-2~CLDN18.2, SNU601, PATU8988S, NUGC-4) (UniProt P56856); assay: cell-based ELISA (OD 450 nm), PATU8988S (CLDN18.2+) cells
[8] = molecular target: CLDN18.2~VLP (virus-like particle) expressing the claudin18.2 protein, CSB-MP005498HU (A5), CUSABIO (UniProt P56856); assay: indirect ELISA (OD 450 nm) on coated CLDN18.2 VLP, regression in GraphPad Prism
[9] = molecular target: claudin18.2 protein (CLDN18.2) on CLDN18.2-positive cancer cell lines (MIA PaCa-2~CLDN18.2, SNU601, PATU8988S, NUGC-4) (UniProt P56856); assay: cell-based ELISA, MIA PaCa-2 (CLDN18.2+) cells; given as Kd, text calls it EC50
[10] = molecular target: claudin18.2 protein (CLDN18.2) on CLDN18.2-positive cancer cell lines (MIA PaCa-2~CLDN18.2, SNU601, PATU8988S, NUGC-4) (UniProt P56856); assay: cell-based or functional assay

Sequence of Antibody-B (zolbetuximab antibody) (VH): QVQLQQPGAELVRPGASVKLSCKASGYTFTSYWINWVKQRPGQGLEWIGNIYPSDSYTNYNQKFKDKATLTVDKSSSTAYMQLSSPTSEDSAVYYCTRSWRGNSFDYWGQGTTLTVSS
Sequence of Antibody-B (zolbetuximab antibody) (VL): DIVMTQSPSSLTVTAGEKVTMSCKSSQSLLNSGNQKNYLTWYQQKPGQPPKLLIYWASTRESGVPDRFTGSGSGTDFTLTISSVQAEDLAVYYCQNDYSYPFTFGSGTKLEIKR
Sequence of ADC-B (antibody-B conjugated with MMAE) (VH): as the sequence (VH) above
Sequence of ADC-B (antibody-B conjugated with MMAE) (VL): as the sequence (VL) above

Bmax [3]: 2.134
Substance: zolbetuximab [Antibody-B, reference compound]
binding to parental MIA PaCa-2 [1]: none of the test substances bound
Bmax (SNU601 cell line): 1.701
Bmax [2]: 3.053
Bmax (PATU8988S cell line): 1.214

Substance: Antibody-B (zolbetuximab antibody)
Bmax [4]: 3.05
Bmax [5]: 1.7
Kd [6]: 12.5 nM
Bmax [7]: 1.21
Bmax [8]: 2.13

Substance: ADC-B (antibody-B conjugated with MMAE)
Bmax [4]: 3.33
Kd [9]: 0.065 µg/mL
Bmax [5]: 2.8
Kd [6]: 10.5 nM
Bmax [7]: 2.33
Bmax [8]: 2.87
IC50 (nM), cell viability (CellTiter-Glo), MIA PaCa-2 (CLDN18.2+) [10]: 2.12 nM
IC50 (nM), cell viability (CellTiter-Glo), NUGC4 (CLDN18.2+) [10]: 20 nM
IC50 (nM), cell viability (CellTiter-Glo), PATU8988S (CLDN18.2+) [10]: 7.19 nM
IC50 (nM), cell viability (CellTiter-Glo), SNU601 (CLDN18.2+) [10]: 10.4 nM

From US20260151501A1, “ANTIBODY-DRUG CONJUGATE COMPRISING ANTI-CLAUDIN-18.2 ANTIBODY, AND THERAPEUTIC USE THEREOF FOR CANCER” (ABTIS CO., LTD., priority 2022, published 2026)
